These results are taken from the supplement of paper PMC12636428.

This data set has as its system Saccharomyces cerevisiae. The experiment in a line: transcriptional activation domain activity (GFP:mCherry ratio, weighted mean of sorted bins, harmonized to initial dataset scale) (arbitrary fluorescence ratio units); higher = stronger transcriptional activation. The following applies: beta-estradiol 1 µM; induction time 4 h. The procedure, abridged:
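Barcoded tiles were sequenced after cells were sorted into 8 bins by GFP:mCherry ratio. Before sorting, cultures had been diluted 1:5 into SC with 1 uM beta-estradiol and held for 4 hours at 30 °C. The tiles were fused to an estradiol-inducible synthetic transcription factor and integrated at URA3 in yeast diploids carrying a GFP reporter. Activation activity is the read-weighted mean of bin median fluorescence, averaged over barcodes and linearly mapped onto the initial dataset scale, and tiles under 50 reads were left out.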

For “MSLLMRVLCFCALGRPDLEDHWKSLQSEKAFEIVRTRVSSILDNIVTTAGVLL”, the “transcriptional activation domain activity” value is 60400.

Regarding “ADASSSRPQQSKGDKGRSRAPGADRKQESSSSSARASGTGGNNTNGGSSSNNN”, the “transcriptional activation domain activity” value is 34100.

Take “YAEWLIEPEQNNGTWVADVLWPAINLDLQWISLHWNQSSWDLWWPPVWGGSYW”: the “transcriptional activation domain activity” value was found to be 53200.

In the case of “IRYLDHTQLLGEPLLKRTFMGGHIFIPTLIDTALCQSYFSSHILDILRHLTFS”, the “transcriptional activation domain activity” value is 63300.

As to “FYICAILGFKIGIIFAFLRIAVDRTYRISIICVAVICSAFYFCFFVAQLNFCT”, the “transcriptional activation domain activity” value amounted to 62100.

Take “PNVFGLMLFELGLGFWIKTDYYYMLICLSVSSLVFRAEISLLSGLLVLQDIFL”: the “transcriptional activation domain activity” value was 66400.

In the case of “DDKPAEKKEAAAAPKKEEAKKEEAKPAEKKEEPKKEAATAVPKATEKKPATAA”, the “transcriptional activation domain activity” value turned out to be 25900.

For the sequence “GMKRFLPLCFVMYTLWCTTISITWKLICFLSVTADSTPTIQWRLLCMLFWYLF”, the “transcriptional activation domain activity” value came to 33700.

For the sequence “CVFLSILCLFIHLLLIVSLLLFFCHCLFFSVPITLVCFSMTIHLTPKIFILLF”, the “transcriptional activation domain activity” value came to 52700.

Turning to “MLLDPRVIPLIFSTLFLFLHFNFLPNFPPLPLSFHPRPTLLPPFCSLLFPLLF”, the “transcriptional activation domain activity” value worked out at 80000.

“VRTARQQLMEAAMKTFQLAVGPSEYLPNLALGYQYMACLRWLTHFNIFFHIPL”: the “transcriptional activation domain activity” value was found to be 71400.

Consider “DMLISFGLDHPSNREDDLDKLCNMTRDVQAIFSQYLKGEESKRSLEDFLSTSN”, for which the “transcriptional activation domain activity” value was found to be 67500.

“PILYFLSLSLSLPPSLSLFLFLYIINQISRFWLVLFQLFFLFLFLLFPSILTS”: the “transcriptional activation domain activity” value turned out to be 62800.

Turning to “NGFLLQVVRWNTRPHKEVVQLLTKYFTGAKHQRLLSENIGLIAEWTDRICQLG”, the “transcriptional activation domain activity” value turned out to be 58900.

Take “SASSNTRPREPSPEPYRKPREESRDRKRHRSRDRRRDRSPGGKKSRAREGRRD”: the “transcriptional activation domain activity” value is 35900.

With “PFLFPSLFYSQYHTIPFSFSCHFIPLSFSFPSFYSGSPIPFPFLFSSSYLFLF”, the “transcriptional activation domain activity” value turned out to be 58300.

For the sequence “TPFALFSSCYALNATVDQDYPLLFRRCVLGDTLWVLAILLCILWSLLVCFAFW”, the “transcriptional activation domain activity” value amounted to 31300.

Regarding “EDLRAAMEEEEEVEENEAEEEWVDVMKKHRVQASRLELLASGVGTGRTTSPVD”, the “transcriptional activation domain activity” value came out at 15900.

Take “ADEEDLSSKPRCQRCRKSKKGCDRQRPCGRCKDAGIGIEGCVSEDEGNGRKGR”: the “transcriptional activation domain activity” value is less than 6570.

“MNLSRVFLKVRAIAFSCISLLSFLWIILLCLMLYYRWDESDHSEHSLLIILLL”: the “transcriptional activation domain activity” value came to 45100.

As for “HAEPGTGWACVKHTSDCTAVKKASGIPGRNFHRRPKYSVVVSAGERTWKAKQC”, the “transcriptional activation domain activity” value was 52400.

As to “SLLLPQQPVFVSENVGSEFSSLNEFLSMLENPLLTQTSLSSSSASNVHLENGS”, the “transcriptional activation domain activity” value was 98100.

Take “PEKLFGLMHAAISNFPEWETKVGSWFLLGIWHPRFFKAAKEILPYCRRSCISF”: the “transcriptional activation domain activity” value was 64500.

In the case of “AAKPAPKKAPGRPKKAAAEPEPASEPTESEEPKPKKAGGRPRKAAAPAAEPEA”, the “transcriptional activation domain activity” value was found to be 40700.

In the case of “PAPAPEAPKEEEAAAEPAAEPPKTEEAPAAEPVKEPEQAEPTPAADAPADAPA”, the “transcriptional activation domain activity” value is 18900.

Take “MGNGVRCLLFGKDFSFIFLLYRFSMWFLISPFQLPCWVLVILSCSCSSLSIFG”: the “transcriptional activation domain activity” value stood at 65700.

As to “RISGRVIWSLLICHASWYLNFFIQVGVLSKRLSSPVVLCGVVSFQLLNILLIT”, the “transcriptional activation domain activity” value turned out to be 53000.

As for “MYNTVLAWYCFIFAHVYSFLHCCFYYWFFLAFWLFGLLTYLSFVVGGVFFMPR”, the “transcriptional activation domain activity” value came to 53300.

For the sequence “DDPDVEESDDEPVELWVARGEDRCDACKQRNIRVCEPQWGAPRSSACKTCARK”, the “transcriptional activation domain activity” value came out at 31700.

For “ASVERCHRNIVPNGCAVFQAGGLVVVLVEVSRKSYLASLVPVIVNAILNEHQI”, the “transcriptional activation domain activity” value came out at 43500.

Consider “MNAFRPLHFLFYFIFLLLSMKALRFFIFSIFFFIFLHLHLCIHIYIALLFSYP”, for which the “transcriptional activation domain activity” value is 30600.

Take “DEYGNAKIRDLRLKPVQTISDSQTVDEAVELMRDKGYDQVPVTSSTGRRLVGM”: the “transcriptional activation domain activity” value stood at 73300.

With “GGSKRDREDSRKGGKTSSRGGRLTEDGPSSSHTKKPRKGKKGEEAKEGGEKSS”, the “transcriptional activation domain activity” value is 25100.

As to “MGKGGYGEQRGGGRGGFRGGRGGGRGGFGGGGFNQGPPSEVVVVGTFVSACEG”, the “transcriptional activation domain activity” value was found to be 58400.

Consider “SGIYSGGLSLWTAFFLGYFKAFLWGSFWGWLAGYFVLLFVICVAWNPFFFLYL”, for which the “transcriptional activation domain activity” value came to 57600.

As to “CCQSNSLLNMENYLVPYDNFREVVDSRLQEESHSNGVDNSNSNSDNKDSIRPK”, the “transcriptional activation domain activity” value was 24200.

Consider “PDDHKLLKALVFFLWVFDGLHIALICHAFYLITVTNFGNVLALLTIPRTLPIA”, for which the “transcriptional activation domain activity” value amounted to 58400.

Turning to “MTPRAQDSSSDDKEDKKDTDRAAIRAAQNRKAQRLYRQRKEARVRELEATVAK”, the “transcriptional activation domain activity” value is 78900.

In the case of “GSSDGGSHNAPGAPRPMALRALITTKEAGVIIGKNGKNVAEMREQSGAKITVS”, the “transcriptional activation domain activity” value was determined as 48900.

Consider “WLFCFICYPLPLHPISYQIAPPFYSIFFVILLTIVFFLLLFLFVSSFLYLRLG”, for which the “transcriptional activation domain activity” value was 70000.

In the case of “SSRYIQTSTLTRLLLTYRQWIFVVVYSHLLLLDHSSQIWWRWMNIFFTLVIWS”, the “transcriptional activation domain activity” value was found to be 62300.

With “VFERVRLDWLILFDLRMWKKVRNDLRALYISTVVTIPEFKRILGLRFAALYTT”, the “transcriptional activation domain activity” value came to 51300.

Take “DIDMEDVDGDAAPSAKKAKASKKRKKDAESDGEQEKACLSFRTILLHSLIFIQ”: the “transcriptional activation domain activity” value turned out to be 41900.

As for “DFFLGERDLLQETVSEEWLQFFDDGDLDQILDFLIFFKNPESLHPPSSLVDFI”, the “transcriptional activation domain activity” value worked out at 158000.

Take “PFLFKITVLYVLEVIDGILDVSRFFPAVQLELCCLMFLWCCCGMVLLWFCLTR”: the “transcriptional activation domain activity” value was found to be 58800.

For the sequence “MYCSLQTLLFRFFAYWQGMTFFGFLFCFHVLGSQNLFFGSCFVLLLMQLLCLF”, the “transcriptional activation domain activity” value amounted to 58900.

As to “ARVQVNFWFFLFVYYGFYNLTALIWITKVFNLYSLNWWPSMLGFPLTISLIAI”, the “transcriptional activation domain activity” value was 75700.

For the sequence “GSNIQWLVTKWREMGCRKGPIELTKFLTGLLCVNPFSLTPEKGARLLIKLLSI”, the “transcriptional activation domain activity” value was 62200.

Regarding “VTRHHEFLRVHLNEKGEKLLYITHRLDKNGFDVRVFLVAASGFLTDSYILFVT”, the “transcriptional activation domain activity” value was 39700.

“RFNLPICGEIKMYRGWTVIDLVHMVCINTACKISNLKHALRKLSISFTNLVKP”: the “transcriptional activation domain activity” value turned out to be 54700.

As to “GANAGGARPSSRTSNKKPTSSASPPNDSNDSNKKKDADAKKHDGKKAERGGGR”, the “transcriptional activation domain activity” value stood at 29100.

In the case of “TLTSPQGSDLASNSATQYKPDLEDFLMQNSNFNGLMINPSSLVEVVGGYNDPN”, the “transcriptional activation domain activity” value is 83200.

Regarding “QTTDLVQWLAMPCNLPWVVYVLDRVRNLLRFVIVLSEVEITEDLKRRIMAIYT”, the “transcriptional activation domain activity” value amounted to 77400.

In the case of “RPLSEASRDLALPSVTRVWCDEKDNIFYMQDVNFVTDITKVLLVSVLSTVARC”, the “transcriptional activation domain activity” value was 47600.

Take “MPTPGLDHSLQMMPDGNSGVNPSLLGDFDLFSASAYQAELDYLSFPFMDSFLA”: the “transcriptional activation domain activity” value worked out at 140000.

Consider “RRVTSMRLDTEGYVGVLGVEVDFRGRMFDLTADILVRVRYCLQSTILLLEIPL”, for which the “transcriptional activation domain activity” value worked out at 55100.

In the case of “GWKGRGKSGGRGRKTSGGGLKTERKSGGVSKASGGGGSSSRGGRGAGAGAGAG”, the “transcriptional activation domain activity” value stood at 14100.

With “VHGSSFLVRYFVYITPLVLVILIPLLLGALLFKHASVAGVEMVWFCIWLEIVW”, the “transcriptional activation domain activity” value is 50100.

As for “MDDALSVKSNDDGTYDVAVHIADVSYFVKPNTALDRDARKRATSVYLIQRAVP”, the “transcriptional activation domain activity” value stood at 15900.

“LEEYYWKTLNFTTPMYGADTPGSIFPEGLNVWNVAKLPNILDHMETKVPGVND”: the “transcriptional activation domain activity” value came to 88300.

Consider “LYMLKIVNWAVLYASLILATLLWCTIFIIYRILKVGGVTAGMRAYHRVIELLV”, for which the “transcriptional activation domain activity” value was 83500.

For the sequence “MPRHLYLIYILYILMTWGLYLILLQVIFIITMLMIFIYPFSIYLFKFQHIRSL”, the “transcriptional activation domain activity” value worked out at 49500.

In the case of “SMRAPLFTELGLLPLRFRRLILALRYLSYLITLPHEHYASAALQDAFDLYSQG”, the “transcriptional activation domain activity” value came to 24100.

As for “RCMVIYRSSGFFFWAIVLLPCLMFLASFSESLFQYISSPSFTVTVRLGLGILF”, the “transcriptional activation domain activity” value worked out at 63200.

For “VCQPLSPPVTGVLLVSFLPLFSRAFLAFLLSTLWLFSPLSDHILYYFCFYLAL”, the “transcriptional activation domain activity” value amounted to 35200.

In the case of “DAAAEKSGNDVSEKSSGPRAKRRKVDPELDTVDEEPKKQRSKKRVKVSVPNGI”, the “transcriptional activation domain activity” value is 45800.

Turning to “LLVRIIGRCGFLGASFQVALLSDYISIMTLHIYWFYAVAARIYFWQLSILHSL”, the “transcriptional activation domain activity” value is 43100.

As for “PFVVTLLNLWKIWSLKLLKEKARLVVDGGAFVMGCVDETVTLRGHDDHKWTKD”, the “transcriptional activation domain activity” value worked out at 56800.

As for “LGDQPHIPIPVAFRNIWSFLRVCTLEGFDAKEILPILFALSPGAQLRFIRCRS”, the “transcriptional activation domain activity” value amounted to 70800.

“TGAKAPEGGKQLIVVVSSDKGLCGGIHSAVTKKTRQEYAAAPAEDKPQLIVVG”: the “transcriptional activation domain activity” value turned out to be 63400.

In the case of “RKPESNEKTEGANGEGHDGTRRRQSTRGRGRAGRGRGGRARGERGEKKEEGAE”, the “transcriptional activation domain activity” value was found to be 14100.

On to “MHDTWFPFLAIVLLFYPTILGPGTFSIYFPHSALPPYMSLHLYVHARFLLLLL”, for which the “transcriptional activation domain activity” value is 65800.

Regarding “RFGGSARGGGTGVEPPAKGKKGGGEEREGGEGRKGKGGRGPGTRERKGKERER”, the “transcriptional activation domain activity” value was less than 6570.

For “FSFGLLFWFLFLFLFLLLFVFLFWSFGFVLLLVLVLFLCSFLLFMFGFWFSSG”, the “transcriptional activation domain activity” value is 47100.
